B1: LINE1-full (parent)
chain: UACGUAGGUGGUUUUCCCCUGAUAGUGCUAAGGGGGCCUGGAAGUUUGGACUGGGCAGAGCUCAACACAGCGUGGCAAAGUGGCUGUGGCUAGACUGCCUCUCUGGAUUCCUCGUCACUCAGCAGGGCAUCUCUGAGAGAAAUGCC

Variants of: B1
Experiment: self-cleavage, relative activity (ratio to wild type); higher = more cleavage; in vitro, sequencing; the parent is a self-cleaving ribozyme

| Variant | self-cleavage |
| --- | --- |
| UACGUAGGUGGUUUUCCCCUGAUAGUGCUAAGGGGACCAGGAAGUUUGGACUGGGCAGAGCUCAACACAGCGUGGCAAAGUGGCUGUGGCUAGACUGCCUCUCUGGAUUCCUCGUCACUCAGCAGGGCAUCUCUGAGAGAAAUGCC [G36A U39A] | 1.3 |
| UACGUAGGUGGUUUUCCCCUGAUAGUGCUAAGGGGACCUGGAAGUUUGGACUGGGCAGAGCUCAACACAGCGUGGCAAAGUGGCUGUGGCUAGACUGCCUCUCUGGAUUCCUCGUCACUCAGCAGGGCAUCUCUGAGAGAAGUGCC [G36A A142G] | 1.09 |
| UACGUAGGUGGUUUUCCCCUGAUAGUGCUAAGGGGACCUGGAAGUUUGGACUGGGCAGAGCUCAACACAGCGUGGCAAAGUGGCUGUGGCUAGACUGCCUCUCUGGAUUCCUCGUCACUCAGCAGGGCAUCUCUGAGGGAAAUGCC [G36A A138G] | 1.53 |
| UACGUAGGUGGUUUUCCCCUGAUAGUGCUAAGGGUGCCUGGAAGUUUGGACUGGGCAGAGCUCAACACAGCGUGCCAAAGUGGCUGUGGCUAGACUGCCUCUCUGGAUUCCUCGUCACUCAGCAGGGCAUCUCUGAGAGAAAUGCC [G35U G75C] | 0.77 |
| UACGUAGGUGGUUUUCCCCUGAUAGUGCUAAGGGUGCCUGGAAGUUUGGACUGGGCAGAGCUCAACACAGCGUGGCAAAGUGGCUGUGGCUAGACUGCCUCUCUGGAUUCCUCGUCACUCAGCAGGACAUCUCUGAGAGAAAUGCC [G35U G127A] | 1.22 |
| UACGUAGGUGGUUUUCCCCUGAUAGUGCUAAGGGGACCUGGAAGUUUGGACUGGGCAGAGCUCAACACAGCGUGGCAAAGUGGCUGUGGCUAGACUGCCUCUCUGGAUUCCUCGUCACUCAGCAGGGCAUCUCUGAGAGGAAUGCC [G36A A140G] | 1.3 |
| UACGUAGGUGGUUUUCCCCUGAUAGUGCUAAGGGGACCUGGAAGUUUGGACUGGGCAGAGCUUAACACAGCGUGGCAAAGUGGCUGUGGCUAGACUGCCUCUCUGGAUUCCUCGUCACUCAGCAGGGCAUCUCUGAGAGAAAUGCC [G36A C63U] | 0.36 |
| UACGUAGGUGGUUUUCCCCUGAUAGUGCUAAGGGGACCUGGAAGUUUGGACUGGGCAGAGCUCAACACAGCGUGGCAAAGUGGCUGUGGCUAGGCUGCCUCUCUGGAUUCCUCGUCACUCAGCAGGGCAUCUCUGAGAGAAAUGCC [G36A A94G] | 0.34 |
| UACGUAGGUGGUUUUCCCCUGAUAGUGCUAAGGGUGCCUGGAAGUUUGGACUGGGCAGAGCUCAACACAGCGUGGCAAAGUGGCUGCGGCUAGACUGCCUCUCUGGAUUCCUCGUCACUCAGCAGGGCAUCUCUGAGAGAAAUGCC [G35U U87C] | 0.14 |
| UACGUAGGUGGUUUUCCCCUGAUAGUGCUAAGGGGACCUGGAAGUUUGGUCUGGGCAGAGCUCAACACAGCGUGGCAAAGUGGCUGUGGCUAGACUGCCUCUCUGGAUUCCUCGUCACUCAGCAGGGCAUCUCUGAGAGAAAUGCC [G36A A50U] | 1.16 |
| UACGUAGGUGGUUUUCCCCUGAUAGUGCUAAGGGGACCUGGAAGUUUGGACUGGGCUGAGCUCAACACAGCGUGGCAAAGUGGCUGUGGCUAGACUGCCUCUCUGGAUUCCUCGUCACUCAGCAGGGCAUCUCUGAGAGAAAUGCC [G36A A57U] | 0.12 |
| UACGUAGGUGGUUUUCCCCUGAUAGUGCUAAGGGGACCUGGAAGUUUGGACUGGGCGGAGCUCAACACAGCGUGGCAAAGUGGCUGUGGCUAGACUGCCUCUCUGGAUUCCUCGUCACUCAGCAGGGCAUCUCUGAGAGAAAUGCC [G36A A57G] | 1.52 |
| UACGUAGGUGGUUUUCCCCUGAUAGUGCUAAGGGGACCUGGAAGUUUGGACUGGGCAGUGCUCAACACAGCGUGGCAAAGUGGCUGUGGCUAGACUGCCUCUCUGGAUUCCUCGUCACUCAGCAGGGCAUCUCUGAGAGAAAUGCC [G36A A59U] | 0.67 |
| UACGUAGGUGGUUUUCCCCUGAUAGUGCUAAGGGGACCUGGAAGUUUGGACUGGGCAGAGCUCAACACAGCGAGGCAAAGUGGCUGUGGCUAGACUGCCUCUCUGGAUUCCUCGUCACUCAGCAGGGCAUCUCUGAGAGAAAUGCC [G36A U73A] | 1.84 |
| UACGUAGGUGGUUUUCCCCUGAUAGUGCUAAGGGUGCCUGGAAGUUUGGACUGGGCAGAGCUCAACACAGCGUGGCAAAGUGGCUGUGGCUAGACUGCCCCUCUGGAUUCCUCGUCACUCAGCAGGGCAUCUCUGAGAGAAAUGCC [G35U U100C] | 1.85 |
| UACGUAGGUGGUUUUCCCCUGAUAGUGCUAAGGGGACCUGGAAGUUUGGACUGGGCAGAGCGCAACACAGCGUGGCAAAGUGGCUGUGGCUAGACUGCCUCUCUGGAUUCCUCGUCACUCAGCAGGGCAUCUCUGAGAGAAAUGCC [G36A U62G] | 0.01 |
| UACGUAGGUGGUUUUCCCCUGAUAGUGCUAAGGGGACCUGGAAGUUUGGACUGGGCAGAGCUCAACACAGCGUGGCAGAGUGGCUGUGGCUAGACUGCCUCUCUGGAUUCCUCGUCACUCAGCAGGGCAUCUCUGAGAGAAAUGCC [G36A A78G] | 1.32 |
| UACGUAGGUGGUUUUCCCCUGAUAGUGCUAAGGGGACCUGGAAGUUUGGACUGGGCAGAGCUCAACACAGCGUGGCAAAGUGGCUGUGGCUAGACUGCCUCUCUGGAUUCCUCGUCACUCGGCAGGGCAUCUCUGAGAGAAAUGCC [G36A A121G] | 1.1 |
| UACGUAGGUGGUUUUCCCCUGAUAGUGCUAAGGGUGCCUGGAAGUUUGGACUGGGCAGAGCUCAACACAGCGUGGCAAAGUGGCUGUGGCUAGACUGCCUCUCUGGAUUCCUCGUCACUCAGCUGGGCAUCUCUGAGAGAAAUGCC [G35U A124U] | 1.41 |
| UACGUAGGUGGUUUUCCCCUGAUAGUGCUAAGGGGACCUGGAAGUUUGGACUGGGCAGAGCUCAACACAGCGUGGCAAAGUGGCAGUGGCUAGACUGCCUCUCUGGAUUCCUCGUCACUCAGCAGGGCAUCUCUGAGAGAAAUGCC [G36A U85A] | 0.04 |
